{"source": "patent US9750803B2", "about": "“Lipid vesicle compositions and methods of use” (priority 2010, dated 2017)", "molecules": {"B1": {"name": "ovalbumin (protein, UniProt P01012 2-386, looked up)", "Ovalbumin": "GSIGAASMEFCFDVFKELKVHHANENIFYCPIAIMSALAMVYLGAKDSTRTQINKVVRFDKLPGFGDSIEAQCGTSVNVHSSLRDILNQITKPNDVYSFSLASRLYAEERYPILPEYLQCVKELYRGGLEPINFQTAADQARELINSWVESQTNGIIRNVLQPSSVDSQTAMVLVNAIVFKGLWEKAFKDEDTQAMPFRVTEQESKPVQMMYQIGLFRVASMASEKMKILELPFASGTMSMLVLLPDEVSGLEQLESIINFEKLTEWTSSNVMEERKIKVYLPRMKMEEKYNLTSVLMAMGITDVFSSSANLSGISSAESLKISQAVHAAHAEINEAGREVVGSAEAGVDAASVSEEFRADHPFLFCIKHIATNAVLFFGRCVSP"}, "B2": {"name": "soluble VMP: recombinant vivax malaria protein (VMP001, SEQ ID NO:1) given as soluble protein with MPLA, Montanide or alum (protein)", "chain": "THCGHNVDLSKAINLNGVNFNNVDASSLGAAHVGQSASRGRGLGENPDDEEGDAKKKKDGKKAEPKNPRENKLKQPGDRADGQAAGNGAGGQPAGDRAAGQPAGDRAAGQPAGDGAAGQPAGDRADGQPAGDRADGQPAGDRAAGQAAGNGAGGQAAANGAGNQPGGGNAANKKAEDAGGNAGGNAGGQGQNNEGANAPNEKSVKEYLDKVRATVGTEWTPCSVTCGVGVRVRRRVNAANKKPEDLTLNDLETDVCT", "modifications": "VMP Amino Acid Sequence"}}, "key": {"CD45.1+ recipient mice": {"tested_on": "CD45.1+ recipient mice", "experiment": "Expansion of adoptively transferred OT-II CD4+ T-cells after immunization", "assay_type": "in vivo, mouse", "conditions": "eight days post priming", "protocol": "(§1) Germinal center and follicular helper T cell analysis. Mice were immunized s.c. with 5 μg of MPLA and 100 μg of OVA-alexa fluor 555 in either soluble or ICMV formulations (lipids labeled with DiD). At serial time-points, dLNs were isolated, flash-frozen, cryo-sectioned, and examined by confocal microscopy. To identify cell types associated with particles, dLNs were isolated on d 1 or 4, stained with anti-CD11b, anti-CD11c, anti-CD169, anti-CD205, and F4/80, and analyzed by flow cytometry. To assess GC formation, dLNs were isolated on d14 from mice immunized with 1 μg of unlabeled soluble VMP or VMP-ICMVs (both with 0.1 μg MPLA), stained with anti-B220, anti-IgD, anti-GL-7 (BD), peanut agglutinin (Vectorlabs, Burlingame, Calif.), and analyzed by flow cytometry or confocal microscopy. To monitor antigen-specific CD4+ T-cells, […] OVA-specific CD4+ T cells from OT-II (CD45.2+) mice were adoptively transferred i.v. into recipient congenic CD45.1+ mice. After 1 d, recipient mice were immunized s.c. with 10 μg of OVA in either soluble or ICMV formulations, both with 1 μg MPLA. A second comparison group of mice were immunized s.c. with 100 μg OVA in alum. The frequencies of OVA-specific CD4+ T cells and their phenotypes in spleens and dLNs were determined by flow cytometry analysis, following staining with DAPI, anti-CD4, anti-CD45.2, anti-PD-1, and anti-CXCR5 (BD)."}, "[1]": {"tested_on": "OVA-specific naïve OT-I CD8+ T-cells", "experiment": "CFSE dilution proliferation assay of OT-I CD8+ T-cells co-cultured with pulsed splenic DCs", "assay_type": "cell-based", "conditions": "DCs pulsed with 0.7 μg/mL OVA equivalent, 0.1 μg/mL MPLA, day 3", "protocol": "FIGS. 7A-7C. In vitro stimulation of immune responses by ICMVs supplemented with the TLR agonist MPLA. (A) Flow cytometry analysis of expression of the cell surface costimulatory markers CD40, CD80, and CD86 on splenic dendritic cells (DCs) after 18 hr incubation with 0.7 μg/mL soluble OVA, equivalent doses of OVA loaded in ICMVs, or ICMVs loaded with an irrelevant protein (vivax malaria protein, VMP), in the presence or absence of 0.1 μg/mL MPLA. (B) Splenic DCs were incubated for 18 hr with 10 μg/mL […] peptide (OVA257-264), 5.0 μg/mL soluble OVA, equivalent doses of OVA loaded in ICMVs, or VMP-loaded ICMVs in the presence or absence of 0.05 μg/mL MPLA, and the extent of cross-presentation of OVA was assessed by flow cytometry analysis of cells stained with the 25-D1.16 mAb that recognizes […] complexed with H-2K^b. (C) 5-(6)-carboxyfluorescein diacetate succinimidyl diester (CFSE)-labeled OVA-specific naïve OT-I CD8^+ T-cells were co-cultured with syngeneic splenic DCs pulsed with soluble 0.7 μg/mL OVA mixed with 0.1 μg/mL MPLA, or equivalent doses of OVA-loaded ICMVs mixed with MPLA. Empty ICMVs without antigen or ICMVs loaded with the irrelevant antigen VMP were included as negative controls. Proliferation of CD8^+ T-cells was assessed on day 3 by flow cytometry analysis of the dilution of CFSE in the OT-I CD8^+ T-cells; shown are histograms of CFSE fluorescence. […]"}, "C57Bl/6 mice [2]": {"tested_on": "C57Bl/6 mice", "experiment": "Example 2 vaccination: tetramer+ OVA-specific CD8+ T-cells in PBMCs", "assay_type": "in vivo, mouse", "conditions": "mixed with 0.1 μg MPLA", "protocol": "(§2) Vaccination study with ICMVs. Groups of C57Bl/6 mice (Jackson Laboratories) were immunized s.c. in the tail base with indicated doses of OVA (with or without TLR agonist MPLA). Frequencies of OVA-specific CD8^+ T-cells and their phenotypes elicited by immunization were determined by flow cytometry analysis of PBMCs at selected time points following staining with DAPI (to discriminate live/dead cells), anti-CD8 alpha, anti-CD44, anti-CD62L, and […]/H-2K^b peptide-MHC tetramers (Becton Dickinson). To assess functionality of primed CD8^+ T-cells, PBMCs were stimulated ex vivo with 1 μM OVA-peptide […] for 6 hrs with GolgiPlug (Becton Dickinson), fixed, permeabilized, stained with anti-IFN-gamma and CD8 alpha, and analyzed by flow cytometry. Anti-OVA IgG titers, defined as the dilution of sera at which 450 nm OD reading is 0.5, were determined by ELISA analysis of sera from immunized mice. Animals were cared for following NIH, state, and local guidelines."}, "C57Bl/6 mice [3]": {"tested_on": "C57Bl/6 mice", "experiment": "Example 2 vaccination: anti-OVA IgG serum titers by ELISA", "assay_type": "in vivo, mouse", "conditions": "low dose of MPLA (0.1 μg), two boosts, day 56", "protocol": "as §2"}, "mice [4]": {"tested_on": "mice", "experiment": "Antigen delivery to draining lymph nodes (histology at serial time-points)", "assay_type": "in vivo, mouse", "conditions": "s.c., with MPLA", "protocol": "as §1"}, "mice [5]": {"tested_on": "mice", "experiment": "Germinal center analysis in draining lymph nodes", "assay_type": "in vivo, mouse", "conditions": "100 ng VMP, with MPLA, histological analysis", "protocol": "as §1, with “To assess GC formation, dLNs were isolated on d14 from mice immunized with 1 μg of unlabeled soluble VMP or VMP-ICMVs (both with 0.1 μg MPLA), stained with anti-B220, anti-IgD, anti-GL-7 (BD), peanut agglutinin (Vectorlabs, Burlingame, Calif.), and analyzed by flow cytometry or confocal microscopy.” left out"}, "C57Bl/6 mice [6]": {"tested_on": "C57Bl/6 mice", "experiment": "Epitope analysis of anti-VMP sera on VMP peptide fragments", "assay_type": "in vivo, mouse", "conditions": "d 90", "protocol": "(§3) Immunizations. Animals were cared for following NIH, state, and local guidelines. Groups of 6-10-wk old female C57Bl/6 mice (Jackson Laboratories, Bar Harbor, Me.) were immunized s.c. at the tail base with VMP-ICMVs and indicated doses of MPLA (Sigma-Aldrich, St. Louis, Mo.) in 100 μL PBS on day 0 and 21. Control immunizations with soluble VMP were performed using MPLA, Montanide ISA-50 V2 (Seppic, N.J.), or alum (Imject alum, Pierce, Rockford, Ill.) at an adjuvant:protein solution vol. ratio of 1:1 following the manufacturer's instructions.\n(§4) Characterization of anti-VMP humoral responses. Sera were analyzed for IgG, IgG1, and IgG2c antibodies by ELISA using VMP-coated plates (Bell et al. 2009 Vaccine 27:1448-1453). Anti-VMP IgG titers were defined as the lowest serum dilution at which the ELISA OD reading was ≧0.5. Avidity measurements were performed by incubating plates with 6 M urea for 10 min at 20° C. to remove weakly bound IgG prior to addition of detection Ab. The avidity index was defined as (IgG titer with 6 M urea/IgG titer without urea)×100. […] Splenocytes isolated 7 d after boost vaccinations were restimulated ex vivo with either PBS or VMP-ICMV at 2 μg/ml, and on d2, cytokine levels in the culture supernatants were measured by flow cytometry (Cytometric Bead Array, BD)."}, "C57Bl/6 mice [7]": {"tested_on": "C57Bl/6 mice", "experiment": "Example 3 immunization: anti-VMP IgG serum titers and isotypes by ELISA", "assay_type": "in vivo, mouse", "protocol": "as §3, §4"}}, "data": [{"molecule": "ovalbumin [soluble OVA]", "values": [{"measurement": "Expansion of OT-II CD4+ T-cells in spleens, fold compared to PBS", "setting": "CD45.1+ recipient mice", "value": "~6.3", "unit": "fold"}, {"measurement": "Proliferation of OT-I CD8+ T-cells", "setting": "[1]", "value": "weak T-cell responses"}, {"measurement": "Antigen-specific T-cell expansion by tetramer staining", "setting": "C57Bl/6 mice [2]", "value": "barely detectable"}, {"measurement": "Anti-OVA serum IgG response", "setting": "C57Bl/6 mice [3]", "value": "barely detectable antibody response"}]}, {"molecule": "B1", "values": [{"measurement": "Time at which antigen was detected in dLNs", "setting": "mice [4]", "value": "≤ 4", "unit": "h"}]}, {"molecule": "B2", "values": [{"measurement": "GCs per dLN", "setting": "mice [5]", "value": "complete absence"}, {"measurement": "Recognition of the AGDR motif by sera", "setting": "C57Bl/6 mice [6]", "value": "did not recognize"}, {"measurement": "Fold more protein required to elicit a response than VMP-ICMVs", "setting": "C57Bl/6 mice [7]; mixed with MPLA or adjuvanted with Montanide or alum", "value": "at least 10 fold"}, {"measurement": "Antigen-specific IgG isotype response", "setting": "C57Bl/6 mice [7]; with MPLA, d 90", "value": "only Th2-skewed IgG1 antibodies"}]}]}
